# Measured values reported in patent US11981943B2, “Methods and composition for detecting CAPN5” (UNIVERSITY OF IOWA RESEARCH FOUNDATION, priority 2016, dated 2024).
# “Also recorded” adds a separate entry of the source.
# Columns and labels:
# Format in all cases: biochemical
# CAPN1 WT [1] = molecular target: T1, CAPN1 WT (Homo sapiens, UniProt P07384); assay: Inhibition of CAPN1 WT proteolysis of EPLFAERK substrate
# T1 sequence (P07384 1-714): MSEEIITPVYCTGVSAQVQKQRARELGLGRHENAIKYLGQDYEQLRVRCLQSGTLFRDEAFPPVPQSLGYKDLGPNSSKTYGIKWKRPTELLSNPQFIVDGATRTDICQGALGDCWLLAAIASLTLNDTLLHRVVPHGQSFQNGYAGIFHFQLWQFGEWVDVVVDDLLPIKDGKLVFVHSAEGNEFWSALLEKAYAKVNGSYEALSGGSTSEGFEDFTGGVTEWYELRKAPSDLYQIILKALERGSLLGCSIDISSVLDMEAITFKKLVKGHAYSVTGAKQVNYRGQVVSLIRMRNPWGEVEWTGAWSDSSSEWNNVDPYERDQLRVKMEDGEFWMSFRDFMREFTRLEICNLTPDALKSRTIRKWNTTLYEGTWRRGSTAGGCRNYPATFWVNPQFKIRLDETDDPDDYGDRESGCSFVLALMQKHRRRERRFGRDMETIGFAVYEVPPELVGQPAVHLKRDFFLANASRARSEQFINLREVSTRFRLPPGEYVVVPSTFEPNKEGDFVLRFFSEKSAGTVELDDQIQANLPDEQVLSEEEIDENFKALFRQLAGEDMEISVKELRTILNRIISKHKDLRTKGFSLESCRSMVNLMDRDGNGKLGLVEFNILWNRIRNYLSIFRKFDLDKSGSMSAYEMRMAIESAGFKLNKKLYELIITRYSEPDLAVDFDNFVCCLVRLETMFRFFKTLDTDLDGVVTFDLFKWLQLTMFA
# Description: (§1) FIG. 15A: Various concentrations of SNJ-1945 were incubated in a reaction with 50 μM EPLFAERK (SEQ ID NO: 22) (a CAPN1 substrate) and CAPN1 WT in activity. Data is plotted for CAPN1 as initial velocity (μM/sec) versus SNJ-1945 concentration. Addition of 1 μM SNJ-1945 slows the initial reaction rate by 100%. FIG. 15B: CAPN1 WT was incubated with and without SNJ-1945 at increasing concentrations of EPLFAERK substrate (SEQ ID NO: 22). Data is plotted for CAPN1 as initial velocity (μM/sec) versus substrate concentration. FIG. 15C: Various concentrations of SNJ-1945 were incubated in a reaction with CAPN5p.370-80 and CAPN5 WT in an activity buffer. Data is plotted for CAPN5 as initial velocity (μM/sec) versus SNJ-1945 concentration. Only after addition of 100 μM SNJ-1945 did the initial reaction rate slow to 100%. FIG. 15D: CAPN5 WT was incubated with and without SNJ-1945 at increasing concentrations of CAPN5 p.370-80 substrate. Data is plotted for CAPN5 as initial velocity (μM/sec) versus substrate concentration.
# Various concentrations of SNJ-1945 were incubated in a reaction with 50 μM EPLFAERK (a CAPN1 substrate) (SEQ ID NO: 22) and CAPN1 WT in activity. Addition of 1 μM SNJ-1945 slows the initial reaction rate by 100% (FIG. 15A). CAPN1 WT was incubated with and without SNJ-1945 at increasing concentrations of EPLFAERK substrate (SEQ ID NO: 22) (FIG. 15B). […]
# CAPN5 WT [2] = molecular target: T2, CAPN5 WT (Homo sapiens, UniProt O15484); assay: Inhibition of CAPN5 WT proteolysis of CAPN5p.370-80 substrate; conditions: for effect of increasing substrate concentration on inhibition of CAPN5: increasing concentrations of CAPN5 p.370-80 substrate, with and without inhibitor
# T2 sequence (O15484 whole entry): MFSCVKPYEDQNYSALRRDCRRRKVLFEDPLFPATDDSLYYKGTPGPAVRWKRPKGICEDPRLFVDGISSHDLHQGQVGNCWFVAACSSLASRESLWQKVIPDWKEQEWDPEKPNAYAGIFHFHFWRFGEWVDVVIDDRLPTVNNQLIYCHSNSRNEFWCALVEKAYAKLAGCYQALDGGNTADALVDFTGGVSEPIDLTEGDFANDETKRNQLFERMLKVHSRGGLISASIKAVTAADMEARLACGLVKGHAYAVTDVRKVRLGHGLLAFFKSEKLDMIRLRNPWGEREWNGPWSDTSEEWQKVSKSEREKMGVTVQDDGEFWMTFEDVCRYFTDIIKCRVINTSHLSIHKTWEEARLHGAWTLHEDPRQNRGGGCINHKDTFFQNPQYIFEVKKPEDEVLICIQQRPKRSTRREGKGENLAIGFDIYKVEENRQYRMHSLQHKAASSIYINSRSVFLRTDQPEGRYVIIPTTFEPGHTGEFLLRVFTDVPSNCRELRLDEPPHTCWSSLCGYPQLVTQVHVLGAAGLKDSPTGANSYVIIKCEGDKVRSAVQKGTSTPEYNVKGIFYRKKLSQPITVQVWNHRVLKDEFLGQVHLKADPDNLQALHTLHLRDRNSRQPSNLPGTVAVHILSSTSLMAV
# Description: as §1
# FIGS. 16A-16B. […] First generation lead compound CAPN5 p.370-80 was modified using amide cyclization to generate a second generation competitive cyclic inhibitor. (FIG. 16A) Various concentrations of Cyclic CAPN5 p.370-80 were incubated in a reaction with CAPN5p.370-80 and CAPN5 WT in an activity buffer. Data is plotted for CAPN5 as initial velocity (μM/sec) versus Cyclic CAPN5 p.370-80 concentration. Addition of 10 μM Cyclic CAPN5 p.370-80 slows the initial reaction rate by 40%. (FIG. 16B) CAPN5 WT was incubated with and without 10 μM Cyclic CAPN5 p.370-80 at increasing concentrations of CAPN5 p.370-80 substrate. Data is plotted for CAPN5 as initial velocity (μM/sec) versus substrate concentration.
# Various concentrations of SNJ-1945 were incubated in a reaction with 50 μM EPLFAERK (a CAPN1 substrate) (SEQ ID NO: 22) and CAPN1 WT in activity. Addition of 1 μM SNJ-1945 slows the initial reaction rate by 100% (FIG. 15A). CAPN1 WT was incubated with and without SNJ-1945 at increasing concentrations of EPLFAERK substrate (SEQ ID NO: 22) (FIG. 15B). Various concentrations of SNJ-1945 were incubated in a reaction with CAPN5p.370-80 and CAPN5 WT in an activity buffer. Only after addition of 100 μM SNJ-1945 did the initial reaction rate slow to 100% (FIG. 15C). CAPN5 WT was incubated with and without SNJ-1945 at increasing concentrations of CAPN5 p.370-80 substrate (FIG. 15D).
# First generation lead compound CAPN5 p.370-80 was modified using amide cyclization to generate a second generation competitive cyclic inhibitor. Various concentrations of Cyclic CAPN5 p.370-80 were incubated in a reaction with CAPN5p.370-80 and CAPN5 WT in an activity buffer. Addition of 10 μM Cyclic CAPN5 p.370-80 slows the initial reaction rate by 40% (FIG. 16A). CAPN5 WT was incubated with and without 10 μM Cyclic CAPN5 p.370-80 at increasing concentrations of CAPN5 p.370-80 substrate.
# CAPN5 WT [3] = molecular target: T2, CAPN5 WT; assay: FRET peptide proteolysis assay with CAPN5-WT; design: MBP (N); conditions: for proteolysis of peptide substrate by CAPN5-WT (fluorescence): FRET peptide, calpain activity buffer, 37° C.
# Description: (§2) FIG. 2. Diagram of Assay. 10 uM of FRET substrates were added to a solution containing 2 mM DTT, 5 uM Calcium, and CAPN5 Buffer (20 mM Tris, 300 mM NaCl, pH 7.5) to a volume of 100 uL. The solution was pipetted into a 96 well plate in wells that contained 24 uM of CAPN5-WT, CAPN5-R243L, or no CAPN5. The fluorescence of each well was measured using a Tecan Infinite M200 Pro plate reader.
# (§3) Peptide substrates dissolved in DMSO and H2O were incubated with WT CAPN5 at 37° C. in the presence or absence of calcium until a change in fluorescence was no longer detected. […] As expected, R243LCAPN5 (hyperactive) cleaved substrate fragments at a higher rate (FIG. 4). Inhibitor peptides were identified that serve as the lead compounds for optimization.
# Proteolytic kinetics of CAPN5 is influenced by peptide length near its autoproteolytic site. Peptides substrates that were 7, 11, and 21 amino acids long were incubated in calpain activity buffer. The solution was brought to 37° C. CAPN5 was then added and fluorescence was measured. […] The kinetics data from the Michaelis-Menten and substrate inhibition equations are shown in a table (FIG. 12D).
# (§4) Peptides were incubated in calpain activity buffer, and the solution was brought to 37° C. Calpain was added and fluorescence was measured. The fluorescence measured for the lead peptide, CAPN5p370-380, was plotted and lines were fit using the following substrate inhibition equation, Y=Vmax*X/(Km+X*(1+X/Ki)). […] The fluorescence measure for a previously published calpain-1 peptide, EPLFAERK (SEQ ID NO: 22), was plotted and lines were fit using the following Michaelis-Menten equation, Y=Vmax*X/(Km+X) (FIG. 13B). […] Kinetics data from the Michaelis-Menten and substrate inhibition equations are shown in a table (FIG. 13C).
# Scanning modifications were made to the amino acids of the lead compound to make the bonds un-cleavable by CAPN5 (FIG. 18B). Despite modifications, the peptide still fit in the catalytic groove using docking predictions. N-terminal (EDANS) and C-terminal GLU-(DABCYL) FRET tags were added to the peptides for our standard CAPN5 assay and were dissolved in 70% DMSO (FIG. 18C). Peptides incubated for 15 minutes at various concentrations with 5 μg of MBP-CAPN5 WT. Modification of the amino acids slows the reaction rate. Data is plotted as initial velocity (uM/sec) versus peptide concentration fit to the substrate inhibition equation (FIG. 18D).
# The CAPN5-370-80 peptide was modified (FIGS. 19A-19G) and the activity was evaluated (FIGS. 20A-20D). Scanning modifications were made to the amino acids of the peptide to make the bonds un-cleavable by CAPN5. The location of the modifications are denoted with circles N-terminal (EDANS) and C-terminal GLU-(DABCYL) FRET tags were added to the peptides for the standard CAPN5 assay and were dissolved in 70% DMSO. Peptides incubated for 15 minutes at various concentrations with 5 μg of MBP-CAPN5 WT in a buffer containing 20 mM Tris, 300 mM NaCl, 2 mM DTT, pH 7.5 to measure activity (FIG. 20C). Data is plotted as initial velocity (uM/sec) versus peptide concentration. Modification of the amino acids slows the reaction rate.
# CAPN1 WT [4] = molecular target: T1, CAPN1 WT; assay: FRET peptide proteolysis assay with CAPN1; conditions: calpain activity buffer, 37° C.
# Description: as §4
# CAPN5 specifically targets a peptide corresponding to its own autocatalytic site and not homologous regions in other calpains. […] Peptides corresponding to the homologous regions of the CAPN5 autoprotolysis site in other calpain family members were incubated with CAPN5 protease. […] Peptides tested in FIG. 14B were incubated with CAPN1. […] Kinetics data from the Michaelis-Menten and substrate inhibitions equations are shown in a table (FIG. 14D).
# CAPN5-R243L = CAPN5-R243L (Homo sapiens, UniProt O15484, R243L); assay: FRET peptide proteolysis assay with CAPN5-R243L; conditions: hyperactive R243L mutant
# CAPN5-R243L, sequence (O15484 whole entry R243L): as the sequence (O15484 whole entry) above, with R243L counted along it
# Description: as §2, §3
compound,measurement,setting,value
COCCOCCOC(=O)N[C@@H](CC(C)C)C(=O)N[C@@H](Cc1ccccc1)C(=O)C(=O)NC1CC1 [SNJ-1945],inhibition of CAPN1 (in words),CAPN1 WT [1],inhibits CAPN1
same,slowing of initial reaction rate of CAPN1,"CAPN1 WT [1]; 1 μM SNJ-1945, 50 μM EPLFAERK substrate",100%
same,inhibition of CAPN5 (in words),CAPN5 WT [2],not a good inhibitor of CAPN5
same,slowing of initial reaction rate of CAPN5,"CAPN5 WT [2]; 100 μM SNJ-1945, CAPN5p.370-80 substrate",100%
same,effect of increasing substrate concentration on inhibition of CAPN5,CAPN5 WT [2],overcomes the inhibition
CAPN5p.372-378: 7 amino acid peptide substrate near the CAPN5 autoproteolytic site (NRGGGCI),proteolysis of peptide substrate by CAPN5-WT (fluorescence),CAPN5 WT [3],mild cleavage
CAPN14 peptide: peptide of the CAPN14 region homologous to the CAPN5 autoproteolysis site (RGFNSGGSQPNAETFWTNPQFR; listed as Homo sapiens),proteolysis of peptide substrate by CAPN5-WT (fluorescence),CAPN5 WT [3],some proteolysis
"Cyclic CAPN5 p.370-80: CAPN5 p.370-80 modified by amide cyclization, second generation competitive cyclic inhibitor",slowing of initial reaction rate of CAPN5,"CAPN5 WT [2]; 10 μM Cyclic CAPN5 p.370-80, CAPN5p.370-80 substrate",40%
same,effect of increasing substrate concentration on inhibition of CAPN5,CAPN5 WT [2],does not overcome inhibition
EPLFAERK [reference compound],proteolysis of peptide substrate by CAPN1 (fluorescence),CAPN1 WT [4],specific to CAPN1; also recorded: high proteolysis
same,proteolysis of peptide substrate by CAPN5-WT (fluorescence),CAPN5 WT [3],not proteolyzed by CAPN5; also recorded: very limited proteolysis
KIEIVRKKPIFKKATV [PDGFB (155-170)],proteolysis of peptide substrate by CAPN5-R243L (fluorescence),CAPN5-R243L,greatest fluorescent intensity
RQNRGGGCINH (listed as Homo sapiens) [CAPN5-370-380],proteolysis of peptide substrate by CAPN5-R243L (fluorescence),CAPN5-R243L,most sensitive to cleavage
same,proteolysis of peptide substrate by CAPN5-R243L (fluorescence),CAPN5-R243L; listed as CAPN5 (370-380),greatest fluorescent intensity
same,proteolysis of peptide substrate by CAPN1 (fluorescence),CAPN1 WT [4]; listed as CAPN5 (370-380),not proteolyzed by CAPN1
same,proteolysis of peptide substrate by CAPN1 (fluorescence),CAPN1 WT [4]; listed as CAPN5p370-380,very limited proteolysis
same,proteolysis of peptide substrate by CAPN5-WT (fluorescence),CAPN5 WT [3],most sensitive to cleavage
same,proteolysis of peptide substrate by CAPN5-WT (fluorescence),CAPN5 WT [3]; listed as 11 aa peptide,rapid and high cleavage
same,proteolysis of peptide substrate by CAPN5-WT (fluorescence),CAPN5 WT [3]; listed as CAPN5 (370-380),specific to CAPN5
same,proteolysis of peptide substrate by CAPN5-WT (fluorescence),CAPN5 WT [3]; listed as CAPN5 (p370-380),greatest fluorescent intensity
same,proteolysis of peptide substrate by CAPN5-WT (fluorescence),CAPN5 WT [3]; listed as CAPN5p370-380,high proteolysis
RQNRGGGCINHKDTFFQNPQY (listed as Homo sapiens) [CAPN5-370-390],proteolysis of peptide substrate by CAPN5-R243L (fluorescence),CAPN5-R243L,greatest fluorescent intensity
same,proteolysis of peptide substrate by CAPN5-WT (fluorescence),CAPN5 WT [3],cleaved slower
same,substrate inhibition of CAPN5 cleavage,CAPN5 WT [3]; peptide length series near autoproteolytic site,does not show cleavage substrate inhibition
